Test results published in article PMC11861356.

Biological target: IRF3 (UniProt Q14653)
Assay: co-immunoprecipitation of tagged proteins, immunoblot
Details: reference: wild-type TBK1; sites Y174

- binding against the reference: weaker
Substance: TBK1 (from UniProt Q9UHD2) TBK1 Y174F
